Laboratory results from the DeepSol protein solubility set.

test: soluble on expression in E. coli; label from the status in PepcDB or PDB records

| Sequence | soluble on expression in E. coli |
| --- | --- |
| MAGFMKNAMSYLGMSDVVDDEDDYIEEDEEQKPASKSAFDSDHTVTPLASTTAPAASSTTKPFPGGRVNRITTIHPKSYEDAQLVGRALRDGVPVVLNLTGVAEAVAYRIVDFSAGVVFGVRGSLERVTPRVFLLSPAQVNIKVEEPTKPASAHDLFADAAALEHHHHHH | not soluble |
| MIIQDIIEAIEAVCPRAYQESYDNSGVQVGDTKREATGALLCVDVTEAVLEEAIRLGCNLVIAHHPILFKPLKRLTGSSYVERCVELAVRHGLVLYAAHTNADNAPQGLNALLAERFGLLNTRPLEPLQGKLLELVTFVPTEYADAVRQALWQAGAGRLGHYDCCSFSHAGTGTFRAAEGANPFVGAISELHHEAEERISLVLPAYRQGTVLQALHAAHPYELPAVSLIPLANDHPSAGGGIVGDLPSPISEREMLLHIKEVFGLKVLSHSAWRERPLRRMAICGGSGAFMWRRAAQEGADLFLTGEAKYNDFFDAGEHLLLVTIGHYESEEVANELFMRIISQKFPTFATHKSSVATNPVNYL | not soluble |
| MGSDKIHHHHHHMSTTASIENIDYWRHPSLSGIELSQAEFTHFSFDKHVHLDYHLGVVTQGAQQFVNKGSYYQLGQHSLSTLNPDDTHDGQSRDAEGYRVKVMSIPVEYMNEVSQELGLKEHFFSAPMVDDALLYHYFIHLHELLIQGQVTALASESHLFNFIQLLLRRHPSGILKCNSPQGLSTLQLGLVKQRMHDEPWHNTQLETLAGEVNLSKFQFLRQFKQATGMTPHAYLKRVRLELAKKSLCHGTLVADVAQQLGFFDQSHLNKAFKQAFLLSPVQFQRRML | not soluble |
| MATKKTFTDETYFKLSEAVYQDGTLNSKKINIELSDRTKSNWKVVSKLNDRATNTQAFAVIPEEKGKDGKIYYNHNNMIFVYRGTKESKDFGSDIINVFAGRNSRTSLDRKSKNPFQVSKEWTEEVLKEFNPKNPTSTGHSLGGALSHYNSILYDFNATTYAAPNIYQLLPEDKQKKVRDGFYNNSIIDFTHDDDMIGTFDQFSSPIIGSQYIAERNNVKVGAKGLFGAIPGHYNETFEGCFSSDGTMKLKVDVDSIIKHAQDIDDIIQSLQTNNADLENLEEKLQIGSKKIQNQLEEEIRIGGAYSELTTWDIDDVLTELCTKYKNGVYCFYNPNEFEKYYEMNHQTRRLLKNFQIELIDAAQSFRETDTRLGKWISNNN | not soluble |
| MGSDKIHHHHHHMRNMQEKGVSEKEILEELKKYRSLDLKYEDGNIFGSMCSNVLPITRKIVDIFLETNLGDPGLFKGTKLLEEKAVALLGSLLNNKDAYGHIVSGGTEANLMALRCIKNIWREKRRKGLSKNEHPKIIVPITAHFSFEKGREMMDLEYIYAPIKEDYTIDEKFVKDAVEDYDVDGIIGIAGTTELGTIDNIEELSKIAKENNIYIHVDAAFGGLVIPFLDDKYKKKGVNYKFDFSLGVDSITIDPHKMGHCPIPSGGILFKDIGYKRYLDVDAPYLTETRQATILGTRVGFGGACTYAVLRYLGREGQRKIVNECMENTLYLYKKLKENNFKPVIEPILNIVAIEDEDYKEVCKKLRDRGIYVSVCNCVKALRIVVMPHIKREHIDNFIEILNSIKRD | not soluble |
| MGSDKIHHHHHHVSATISDLDRLLVAIAAIPTPWKEWPGGYPGRLDLALVDAVMSIRFRYGRERKDGSWTGARGAVLRYQAYSDHVAPAEKMKNLANQDPIALERILNRQKVHSGKTKACAIVEAAQRFLAIDVTEPAHLRPDDAEHRAQYTGVSGLGPVTWEYFTMLLSHDGVKADTWIRRFVERSVQRNVSSDEAGALIKEAANKLDVRETKLDYAVWNYASTTRLETMPKLS | not soluble |
| MDYLTTNKIAWDARTRVHLTSDFYDVEGFLSGKISLTEIELNELAVAGKSLLHLQCHFGLDTLSWARMGAKVTGVDLSEVAIAEACKLAQQTQLSAEFICSDVYSVVGKVEPQDIVFTSYGAIVWLPDLTLWAQTIAACLKPGGQFYMAEFHPAQQLFDGYSYFNRGEPDIEQEGTYTENASDDQQTLMCWSHSLSEVINALLQAGLELVFFHEFAFSPYNCFEGLEAQADGRYVLIHQGQQVPLVYSISARKPVLEHHHHHH | soluble |
| SNAMSVIKIEKALKLDKVIFVDVRTEGEYEEDHILNAINMPLFKNNEHNEVGTIYKMQGKHEAIQKGFDYVSYKLKDIYLQAAELALNYDNIVIYCARGGMRSGSIVNLLSSLGVNVYQLEGGYKAYRNFVLEY | soluble |
| MASDTPGFYMDKLNKYRQMHGVAITYKELSTSGPPHDRRFTFQVLIDEKEFPEAKGRSKQEARNAAAKLAVDILDNENKVDCHT | soluble |
| MGSSHHHHHHGKTIFVIVPTNEEQVAFLEALAKQDELNFDWQNPPTEPGQPVVILIPSDMVEWFLEMLKAKGIPFTVYVEEGGSENLYFQGGGGGGSRPYGATFIAWGLAFALRAWRCLPRERVHMCRAAHRLADAKMRQRGVGKVLMPYTGASRLMPVASYSRGNRLPSCSSTEATTRCHGFLAIGSRSPTPTHQARVDMGDNDITANSSGKTSGAAAGSAPSSCDLFLSASALESSAQFLALTHVASRQEPSSSITDRNAASVTPSGSRSASGRRAPRRSHEPFTCMSRACALDFTTLSEHGSEVPSVEPASLSAMQPTTSSSSRMHGCTGAAMTTVSLPQTPVVSGAVQSPAWLPAELARTFSDSKTPLSVCSQPSKVGPSYSQMDTLSPPTYEEAVLSSSRSSSSPRIAVLSTTMRSQRLSPAVARDGAP | soluble |
| ATVKFKYKGEEKEVDISKIKKVWRVGKMISFTYDEGGGKTGRGAVSEKDAPKELLQMLEKQKK | soluble |
| MSLSKVYLVPTPIGNLGDITLRALEVLKNVDLIAAEDTRQTLKLLNHFEIKKPLISYHKHNEQGKGEEILRRVKEGTSVAIVSDAGTPGISDPGSVVVEKCIEEGIEFEVLPGATAFTTALIYSGLDTTKFMFKGFFPRENKDKRSFIEDIKDRTETIIIYESPYRILDTIDTLKEGLGNRKVAICRELTKLHEEIFRGTLEEAKIHFEENAPKGEFVCVISGKTDKEIEEENTSKWISMSIEEHIIHYIDNEGMKKKDAIKQVAKDRGVAKSEIYKFSLDEGHHHHHH | soluble |
| GPGYNEPMAASDEVNLIESRTVVPLNTWVLISNFKVAYNILRRPDGTFNRHLAEYLDRKVTANANPVDGVFSFDVLIDRRINLLSRVYRPAYADQEQPPSILDLEKPVDGDIVPVILFFHGGSFAHSSANSAIYDTLCRRLVGLCKCVVVSVNYRRAPENPYPCAYDDGWIALNWVNSRSWLKSKKDSKVHIFLAGDSSGGNIAHNVALRAGESGIDVLGNILLNPMFGGNERTESEKSLDGKYFVTVRDRDWYWKAFLPEGEDREHPACNPFSPRGKSLEGVSFPKSLVVVAGLDLIRDWQLAYAEGLKKAGQEVKLMHLEKATVGFYLLPNNNHFHNVMDEISAFVNAE | soluble |
| MSLRFDFHTHTVFSDGELIPAELVRRARVLKHRAIAITDHADFSNYKELIEKTTIAKEELKKYWDDIIVIVGVELTHIPPKSIPKMAKKAKDLGAEIVVVHGETVVEPVEEKTNYYASISEDVDILAHPGFIDKETAENLKENDIFVEITSRRGHNITNGYVANIAREFGLKTLINTDTHAPEDLIDDEFAKKVGLGAGLTNKELENTLLHYPKELLKREGHHHHHH | soluble |
| MKKVYFATKADVERLHSFFGQANKKDDKINELYAQFMILEEAEEIRAVIGYEQSGEDVLIRSCLFTPHVDKQTFLYFFEMFLQYMKEKSVQQLYLLTNHPQSVPIFQFFDFFTIEKDEVPEGIQQLEHFCKNIKEQNAIILNCQLFTKLSTD | not soluble |
